Assay: label from the status in PepcDB records

Sequence | protein production
MPAKVLINGYGSIGKRVADAVSMQDDMEVIGVTKTKPDFEARLAVEKGYKLFVAIPDNERVKLFEDAGIPVEGTILDIIEDADIVVDGAPKKIGKQNLENIYKPHKVKAILQGGEKAKDVEDNFNALWSYNRCYGKDYVRVVSCNTTGLCRILYAINSIADIKKARIVLVRRAADPNDDKTGPVNAITPNPVTVPSHHGPDVVSVVPEFEGKILTSAVIVPTTLMHMHTLMVEVDGDVSRDDILEAIKKTPRIITVRAEDGFSSTAKIIEYGRDLGRLRYDINELVVWEESINVLENEIFLMQAVHQESIVIPENIDCIRAMLQMEEDNFKSIEKTNKAMGIQ | not failed
MPATPSLKVVHELPACTLCAGPLEDAVTVPCGHTFCRLCLPALSQMGAQSSGKILLCPLCQEEEQAETPMAPVPLGPLGETYCEEHGEKIYFFCENDAEFLCTSECRTTDGFGCA | failed
MPCRGLHAIPAGPPEFPELATIYVVCGDKLNVMIDAGVTNSIMDSSFLEKLDLVILTHIHIDHIGLLPEILDRYKNAKVMIKNGFKKFLTTEDGVRRLNESSEKVLGDLYYIYGEFTKIDPDKVVEVEGGEMIDIGDGKTLKIIYTPGHAKHHISVVSDDILFTGDSGGAYFNGAVIPTTPPPLDYDNYVNSLRLQISLKPKVVGLAHGGLVSPNILEQHLDQMLGKESFDIGEIDIGGIGGEILRKQVEVNLRGLNEALGRNKKTLLEHHHHHH | failed
MPDLTRRNFSNLLSFPMPDTRPAKAGGQPRPFFRLGVVRFGLATALALFWVGAFASTATGQRTSRTPDQLENVGVDQKLGATIPKDLSFQNEQGEPVRLSQYFDGSTPVMLTLNYHRCPQLCRIQLQKFTKSLSGMSWTAGDKFKVLTVDISPYEGPKMARKAQERYATFLDRPEETVDGWHFLTGNQAAIETLTDSVGFRYQPLPEKEKQFAHPTTIIFLSGDGTITRYFTTLDPAPGDLRTALVEASDGTVGNVVDKAFLACARFNPDSNSYSASAFKLMQYGSVLTVIVMGAALFVFWRRENEQLETAHEEGLNAMVDEQA | failed
MPDNEVDLLFAQLSPEDLIEWSDYLPESFTDRALAQMGERQRQRFELYDQYSENEIGRYTDHQMLVLSDKATVAQAQRFFRRIELDCNDNLFIVDEADKYLGTVRRYDIFKHEPHEPLISLLSEDSRALTANTTLLDAAEAIEHSREIELPVIDDAGELIGRVTLRAATALVREHYEAQLMATAGMDESDDLFAPILKGAQRRAVWLGINLLTAFLASATIGLFENVLSQVVALAVLMPIVASMGGIAGSQSLTLMIRGMAMGQISAGNLFSLMKNELGIGLVNGTLWAIVIGLVAGWWFADSIIGIVIGCAILINMAVAALAGVFVPMIL | failed
MPDWVTGTWLLALDWAIRLAALLWIPARTTPGAARSWLLLIGFVPVVGLPLYLLFGHPWLSRLRVERQATASQVIREQQLPLHALRWMPQADTSSAEVVPLIEREGDFMPTLGNAVELLDDYAQSLQALIAAIDAADKRVHLLYYLMFDDAVGEAVVVALERASARGVRCRVLLDAVGAKRGLRRYRKRLQDGGVQVLAVLPGGLRWRRSGRMDLRNHRKIAVLDNRVAFVGSQNLAEAGFIDGVPNRELVARVRGPVVNHLEAVFASDWFTETGERLDVWPDAPVCEANIATQLLPSGPAYPFENARDAINAVIHLARRKVVLVTPYFVPDEALLSALRIAPVSGVDVQLILSEHNNQRLAAWAQEAYFEELLRCGVKIALYRPHFLHAKHLSMDEDIALVGSINLDIRSFALNAEIGMLCYDTGVVQRLREIEQDYLANARQLTLEQWRRRPAWRRSREGIARLADALM | failed
MPDYGHDLLFGAVLTPDAQNPRAVLESARLADRSGLDLVSVPDHPYRPDFLDAWTLLSVIAAHTERVRVFPNVANLPLRPPAGLARAAAALDVLSGGRVELGLGAGGYWDAIAGEGQPRRTPGEAVEALAEAIDVIRALWASGGAGATVDGTHYRLDGARPGPPAAHPLGIWVGALGPRMLRLIGRTADGWLPSATRVPPAELAVGQRIVDEAAIAAGRDPRAVRRLYNLP | failed
MPEAGLAQLVPLTAVALLAGVVDAIAGGGGLLTLPALLWTGLPPHLALGTNKGQSVFGSFAALVRFSRAGMVDGRRARLTFPLGLAGSLAGAGLVLLVPPATLRPVVLALLAFAALFVGLRRGPPARPDGGPRPAAPVVAGAIALAIGAYDGFFGPGTGTFLIVAFVALLGDGLAHASAGAKVVNFASNLAAVTLFSIKGVVVWRIAVPMAVAQLAGGWIGAHLAVRRGDALVRRTAVLVTLALAVKLAWDMRS | failed
MPERIIREDVKIGDGMMIDSDSQDDCVTKAVRTVEQKLTTEEHEIVMVYDYVSGSSGSSSTPSFTLTPYSPISYESDQEDYEDPPISPYISEAVVHSPDSTFALLWEGTSPILHFAADMRADAIPSVGDGTTSGIHIPYCFIYGEDGRYPQDCRF | failed
MPEVEDMPSIALHSVMASPNAEYVRWKAHGDFISQLNYYDSMKAVISSSNHEPTALVIGFTVGATDVKEKLNEIRNVGKNVMMGSSSASLALAKRQAECNRTVFRVHKGVKAFSFCRKKNLLATGGLDRIVRVWNPYLPGKPTGVLRGHMAPVMYVHVASEENKVFSVSADNTVKIWDLETHSCCCTVSSKASGIKGELTACLYLPGPRALCVATGTLALFHLKAGSVPEPHLLRSHQEPVVCCRYNPAFRQVVSCCEASVVKVWDLETGRWVSEFIGNAGITCLAFDSSGRRLVTGGRDGDLKIWSYNNGHCLHTLQHDENQNEVCDCTYMEVNRNGCVIAVGWDRRINVYFDIPRDFHHFRKPQPHWQDDLNHGHKEDILCVAQCPPFLLATSSYDGEIIVWNVISGHMYCKLNTPSPMDPREGPDRSVSRLTFLKTRLTKLDSTAASLISNGPGGSVSFWKLFSGSGLIANFTPAREKAQVSGIVVTSGDTVAYLADQHGFIYVYDIQEYGLWGAELQPPNSTHSWEVESQKHSFLKTFDVSEGAGKGLSSSLDCTVRLCSKDGAYIGTFGQNRPWDVYTPDSWGHPRVPLEILTDPQSMPTHLVLETDVPAGCSGGRQEQGHMTEEKVLFETEKTHNPPSPEGPVVEVEVKADKSQWSAFSHDRLLLSSKTLMQDKRLLSARRKPCWKVPELKWPSIYQALQCHELDFVSALREKPDLSVTGFDLLPDYRFPRGPTEYRQCSAELLFRSLPHAAHISSVPQAPAKLWGHKQN | failed
MPEWAVILSICGLYLVLVLGLGVWSGRTVSASVDGYVAGDRTLGVIVLYFVLGASVFSSFAFLGAPGWAYSRGAAAFYIIAYGTVGMVPFYFLGPRARQVGEAFGFVTQAEMLAHRYDSRTLSVVLAALSVVAFVPYLTLQMKGAGLLLSTISDGVVPQWLGALAAYGVVLVYVFASGMMAIGWTNTVQGLFMMAVAWFLGLYLPETLHGGIQPMFEAIAASDKAAMLDVPGLAADGSPWSWAGYSSAVIVSAVGFSMWPHLFMRAFTAKSDRTLKLTVVLYPTFQLFLVPILLIGFAGVLAFPGVAPPDTIVPHLLTQIELSPVLVGLVCAGALAASMSSGDAILHAAASIGLRDGIKPLLAAPMTDTRQRQWIRGLVVATSATAYYFAVFSEVGIVALLLGAYGGVAQIFPLVFAAFYWPRATGAGALAGLLAGIGVNTLFLVAPHLRPFPLHEGVYGLAANIAVFLTVSLLTPPHDRDRLRAYTHSDRLAADETVAS | failed
MPFATNGAPYYEQLVMQIKQQIVQEVLRPGDQLPSIRAMASEMHLNPNTVSKAYQILEHQRAVYTVKGRGTFVSESSQIATDSNAVDDLQTRLQSLLTEAQFLGISAQQVQAWVTTAYQKGESRDEYPS | failed
MPFHGDAQENTWPNSRASPMSLASKLPRFRWLLPAFVVLVGVVLTIVMHWDDRAGLWWKESQASQQQRDESIWLPGYRVVIDAKPLQGLEEEETSDLAYNPATRTLFTVTGKRPLLVELSLTGDVLRTIPLLGLSNPEGVAVLENGNVAVTDERRNTLTIFHVDPQTAELSTKSLAEFPLGNIGKKNKGFEGIAWDPRQQRLLLSKERDPMTLFSWKSDGGPSLSGAMTALPSDDLYMRNVSALSVDPRTGHTLVLSAESHLLLELDEKGEPVSFISLLGGFNGLDSKIPRAEGVAIDDEGTIYMVSEPNLFYVFRKKSGERLATSDADLEHHHHHH | failed
MPFRTPNIANMTDKKFLPQLDENLPTDVFFHYFFLEAKTETLSHSHPWGQLHLIKQGRLEMEVDKQKMFCPANYAIWTPAHLLHRAFNHNDVEYCAINIEFELSQKLPTSACMFPLTPLLRAIVDDLVERQTTEVLSTEDKYLSHVLIERLSKTNPIENYLPFTDDKLLAPILMQLQENPADDSSLEIWAKRVFSTERTLARRFQKELKMSFNDWRQRAKLAKAMVLLKDAISINEIAYQLGYSQGSSFIKMFRKHTGVTPEQFRKEQQGK | failed

— a protein production outcome set (Wang et al. 2014)
